In article PMC8989918, “SH3-domain mutations selectively disrupt Csk homodimerization or PTPN22 binding” (Scientific Reports, 2022):

Biological target: the molecule itself
Assay: SEC; 1 ml (20 mg, 400 µM) purified Csk loaded onto a HiLoad 16/60 Superdex 200 column; apparent molecular weight from partition coefficients of standard proteins

B1: purified recombinant Csk WT (natural protein, mouse, UniProt P41241 1-450, looked up)
chain: MSAIQAAWPSGTECIAKYNFHGTAEQDLPFCKGDVLTIVAVTKDPNWYKAKNKVGREGIIPANYVQKREGVKAGTKLSLMPWFHGKITREQAERLLYPPETGLFLVRESTNYPGDYTLCVSCEGKVEHYRIMYHASKLSIDEEVYFENLMQLVEHYTTDADGLCTRLIKPKVMEGTVAAQDEFYRSGWALNMKELKLLQTIGKGEFGDVMLGDYRGNKVAVKCIKNDATAQAFLAEASVMTQLRHSNLVQLLGVIVEEKGGLYIVTEYMAKGSLVDYLRSRGRSVLGGDCLLKFSLDVCEAMEYLEGNNFVHRDLAARNVLVSEDNVAKVSDFGLTKEASSTQDTGKLPVKWTAPEALREKKFSTKSDVWSFGILLWEIYSFGRVPYPRIPLKDVVPRVEKGYKMDAPDGCPPAVYEVMKNCWHLDAATRPTFLQLREQLEHIKTHELHL
notes: Csk, tyrosine-protein kinase, mouse, full length (50.6 kDa), from pGEX-6P-3; also called WT Csk; full-length Csk; source: E. coli BL21(DE3), purified (GST Gravitrap, PreScission cleavage, HiTrap Q, Superdex 200); not shown: GST, N-terminal, cleaved
- binding result: binds
